Assay results published in US20130150297A1 (KAI PHARMACEUTICALS, published 2013).
Square brackets hold non-standard residues; d marks the D form. Ends that are not written are not given here.

T1: human calcium-sensing receptor (CaSR) (human, UniProt P41180 20-1078)
T1 sequence (looked up): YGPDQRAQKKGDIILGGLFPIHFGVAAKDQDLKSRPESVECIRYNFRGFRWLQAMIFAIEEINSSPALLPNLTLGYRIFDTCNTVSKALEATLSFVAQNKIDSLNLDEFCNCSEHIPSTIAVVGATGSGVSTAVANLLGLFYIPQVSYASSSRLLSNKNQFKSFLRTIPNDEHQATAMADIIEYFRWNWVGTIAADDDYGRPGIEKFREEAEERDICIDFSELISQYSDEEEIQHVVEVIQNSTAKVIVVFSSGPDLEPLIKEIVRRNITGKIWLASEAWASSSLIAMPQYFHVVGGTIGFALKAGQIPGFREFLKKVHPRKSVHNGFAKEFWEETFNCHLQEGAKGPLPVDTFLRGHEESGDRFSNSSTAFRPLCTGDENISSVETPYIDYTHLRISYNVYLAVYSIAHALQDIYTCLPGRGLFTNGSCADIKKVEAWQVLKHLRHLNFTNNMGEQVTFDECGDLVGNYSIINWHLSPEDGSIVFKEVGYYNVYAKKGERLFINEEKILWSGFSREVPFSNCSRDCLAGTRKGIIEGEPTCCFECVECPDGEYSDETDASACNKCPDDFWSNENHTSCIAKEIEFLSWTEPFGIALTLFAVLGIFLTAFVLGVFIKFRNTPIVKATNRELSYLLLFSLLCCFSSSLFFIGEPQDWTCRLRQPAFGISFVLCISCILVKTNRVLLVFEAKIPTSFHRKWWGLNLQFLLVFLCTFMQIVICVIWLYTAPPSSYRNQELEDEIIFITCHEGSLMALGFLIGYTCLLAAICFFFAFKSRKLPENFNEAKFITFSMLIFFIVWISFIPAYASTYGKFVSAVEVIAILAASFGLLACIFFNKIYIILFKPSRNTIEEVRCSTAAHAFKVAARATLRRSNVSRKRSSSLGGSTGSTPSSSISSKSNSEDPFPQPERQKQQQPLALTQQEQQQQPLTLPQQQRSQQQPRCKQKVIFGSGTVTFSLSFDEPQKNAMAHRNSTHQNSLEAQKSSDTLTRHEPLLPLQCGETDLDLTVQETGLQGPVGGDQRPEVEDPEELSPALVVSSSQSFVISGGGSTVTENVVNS


target: T1, human calcium-sensing receptor (CaSR); test: cell-based or functional assay

| Binder | EC50 (µM), CaSR in vitro assay (IP1 production) [µM] |
| --- | --- |
| XXXXXXX (no N-terminal cap; C-terminal amide; all seven residues D-amino acids; D-Cys 1 linked to an L-Cys residue) [c(C)arrrar-NH2] | 3.1 |
| XXXXXXX (N-terminal acetyl; C-terminal amide; residue 1 is D-homocysteine (dHcy); residues 2-7 D-Arg) [Ac-dHcy rrrrrr-NH2] | 2 |
| XXXXXXX (N-terminal acetyl; C-terminal amide; all residues D-amino acids; mercaptopropionic acid (Mpa) attached to the side chain of D-Cys 1) [Ac-c(Mpa)arrrar-NH2] | 21 |
| Ac-[dC][dA][dA][dA][dR][dR][dR][dR][dR][dR]-NH2 (SMILES CC(=O)N[C@H](CS)C(=O)N[C@H](C)C(=O)N[C@H](C)C(=O)N[C@H](C)C(=O)N[C@H](CCCNC(=N)N)C(=O)N[C@H](CCCNC(=N)N)C(=O)N[C@H](CCCNC(=N)N)C(=O)N[C@H](CCCNC(=N)N)C(=O)N[C@H](CCCNC(=N)N)C(=O)N[C@H](CCCNC(=N)N)C(N)=O) [Ac-caaarrrrrr-NH2] | 4.6 |
| CXRXRXR (N-terminal acetyl; C-terminal amide; L-Cys 1, D-Ala 2, L-Arg 3, D-Arg 4, L-Arg 5, D-Ala 6, L-Arg 7) [Ac-CaRrRaR-NH2] | 5.6 |
| (SEQ ID NO: 45) (SEQ ID NO: 47) conjugate, structure given only as drawing CHEM-US-00001 (cysteine pairing not given here; also: further groups not given here) peptide 1: CHDAPIGYD peptide 2: CYGRKKRRQRRR | 21 |
| Ac-CYGRKKRRQRRR-NH2 [Ac-CYGRKKRRQRRR-NH2] | 4.5 |
| XXXXXXX (N-terminal acetyl; free C-terminal acid (-OH); all residues D-amino acids) [Ac-carrrar-OH] | 31 |
| Ac-YGRKKRRQRRR-NH2 [Ac-YGRKKRRQRRR-NH2] | 16 |
| XXXXX (N-terminal acetyl; C-terminal amide; all residues D-amino acids) [Ac-crrrr-NH2] | 16 |
| XXXXXXX (not fully specified; N-terminal acetyl; C-terminal amide; L-Cys 1 linked by a disulfide bond to an L-Cys residue; residues 2-7 D-amino acids) [Ac-C(C)arrrar-NH2] | 2.5 |
| XXXXXXX (N-terminal acetyl; C-terminal amide; all residues D-amino acids; acetyl attached to the side chain of D-Cys 1) [Ac-c(acetyl)rrrrrr-NH2] | 4.1 |
| XXXXXXX (not fully specified; N-terminal acetyl; C-terminal amide; all seven residues D-amino acids; N-acetyl-L-Cys attached to the side chain of D-Cys 1) [Ac-c(Ac-C)arrrar-NH2] | 21 |
| XXXXXXXX (not fully specified; N-terminal acetylated beta-alanine; C-terminal amide; c, a, r residues D-amino acids; D-Cys linked to an L-Cys residue) [Ac-bAla-c(C)arrrar-NH2] | 2.6 |
| XXXXXXX (N-terminal acetyl; C-terminal amide; all residues D-amino acids; oxidized glutathione (GS) attached to the side chain of D-Cys 1) [Ac-c(GS)rrrrrr-NH2] | 7.8 |
| (SEQ ID NO: 46) (SEQ ID NO: 47) conjugate, structure given only as drawing CHEM-US-00002 (cysteine pairing not given here; also: further groups not given here) peptide 1: CPDYHDAGI peptide 2: CYGRKKRRQRRR | 21 |
| XXXXXXXX (N-terminal acetylated beta-alanine; C-terminal amide; Cys and Arg residues are D-amino acids) [Ac-bAla-crrrrrr-NH2] | 1 |
| XXXXXXX (N-terminal acetyl; C-terminal amide; all residues D-amino acids; benzoyl attached to the side chain of D-Cys 1) [Ac-c(Benzoyl)rrrrrr-NH2] | 3.6 |
| XAXXXAX (N-terminal acetyl; C-terminal amide; D-amino acids except L-Ala 2 and L-Ala 6) [Ac-cArrrAr-NH2] | > 1000 |
| XXXXXXXXXXXX (N-terminal acetyl; C-terminal amide; printed in lower case (D-amino acids; glycine is achiral)) [Ac-cygrkkrrqrrr-NH2] | 2 |
| XXXXXXX (N-terminal acetyl; C-terminal amide; all seven residues D-amino acids; D-Cys 1 linked by a disulfide bond to an L-Cys residue) [Ac-c(C)arrrar-NH2] | 10 |
| XXXXXXX (N-terminal acetyl; C-terminal amide; all residues D-amino acids; L-Cys carrying a 5 kDa polyethylene glycol (PEG5-C) attached to the side chain of D-Cys 1) [Ac-c(PEG5-C)rrrrrr-NH2] | 0.58 |
| Ac-CARRRAR-NH2 [Ac-CARRRAR-NH2] | 58 |
| XXXXXXX (no N-terminal cap; C-terminal amide; all residues D-amino acids) [crrrrrr-NH2] | 1.1 |

target: T1, human calcium-sensing receptor (CaSR); test: cell-based or functional assay; remark: another data set of the same source

| Binder | difference in potency relative to Ac-carrrar-NH2 (SEQ ID NO:26) [fold] | shift in potency in HEK-293 in vitro cell assay (4 versus 5 arginine subunits) [fold] | reduction in potency relative to Ac-carrrar-NH2 (SEQ ID NO:26) [fold] | decrease in potency relative to Ac-carrrar-NH2 (SEQ ID NO:26) [fold] |
| --- | --- | --- | --- | --- |
| CXRXRXR (N-terminal acetyl; C-terminal amide; L-Cys 1, D-Ala 2, L-Arg 3, D-Arg 4, L-Arg 5, D-Ala 6, L-Arg 7) [Ac-CaRrRaR-NH2] | < 4 | – | – | – |
| XXXXX (N-terminal acetyl; C-terminal amide; all residues D-amino acids) [Ac-crrrr-NH2] | – | > 10 | – | – |
| XGXXXGX (N-terminal acetyl; C-terminal amide; D-amino acids except Gly 2 and Gly 6) [Ac-cGrrrGr-NH2] | – | – | < 8 | – |
| XAXXXAX (N-terminal acetyl; C-terminal amide; D-amino acids except L-Ala 2 and L-Ala 6) [Ac-cArrrAr-NH2] | – | – | – | > 600 |
